Target: GST-TMEM106B (truncated, comprising amino acids 122-210 of SEQ ID NO:1) (Homo sapiens, UniProt Q9NUM4)
Assay: Pre-mix epitope binning of anti-TMEM106B antibodies (Carterra / Lake Pharma)
Assay type: binding
Parameters: key to epitope bin: Bin 1: competes for binding to the same or overlapping TMEM106B region as the TM1, TM17, TM22, TM26, TM79, and/or TM82 antibodies; Bin 2: competes for binding to the same or overlapping TMEM106B region as the TM3, TM9, TM10, TM11, TM12, TM13, TM18, TM19, TM21, TM24, TM25, TM32, TM35, TM37, TM42, TM45, TM48, TM54, TM59, TM60, TM61, and/or TM76 antibodies; Bin 3: competes for binding to the same or overlapping TMEM106B region as the TM7, TM15, TM83, and/or TM84 antibodies; Bin 4: competes for binding to the same or overlapping TMEM106B region as the TMS, TM28, TM29, TM30, TM63, TM64, TM72, TM78, TM80, TM86, and/or TM88 antibodies; Bin 5: does not bind to a truncated TMEM106B comprising amino acids 122-210 of SEQ ID NO:1
Conditions: for epitope bin: competition for binding to truncated GST-TMEM106B (amino acids 122-210); for Binding Community/Bin: epitope bin number, pre-mix binning on truncated GST-TMEM106B
Experimental: (§1) Monoclonal anti-TMEM106B antibodies were immobilized to a CMD 50M chip (Xantec # SPMXCMD5OM lot# SCCMD50M0416). The running buffer was HBS-EP+ with 1 mg/mL BSA. The GST-TMEM106B (truncated, comprising amino acids 122-210 of SEQ ID NO:1) antigen was prepared at a final concentration of 55 nM (corresponding to 2 μg/mL) and mixed with the competing analyte anti-TMEM106B antibodies at a final concentration of 333 nM (corresponding to 50 μg/mL) or compared to a buffer control. Samples were injected for 5 minutes over the array and regenerated after every cycle with 1 minute of two parts Pierce IgG-Elution buffer (ThermoFisher Cat#21004) and 1 part of 10 mM Glycine, pH 2.0 (Carterra).
Anti-TMEM106B antibodies sorted into various competing bins and resulting binning profiles. […] Antibodies within Bin 3 or Bin 4 partially block Bin 2 antibodies.
as §1, with “SPMXCMD50M” for “SPMXCMD5OM”, “lmg/ml” for “1 mg/mL”, “(truncated)” for “(truncated, comprising amino acids 122-210 of SEQ ID NO:1)”, “μg/ml)” for “μg/mL)”

Chain of GST-TMEM106B (truncated, comprising amino acids 122-210 of SEQ ID NO:1) (Q9NUM4 122-210): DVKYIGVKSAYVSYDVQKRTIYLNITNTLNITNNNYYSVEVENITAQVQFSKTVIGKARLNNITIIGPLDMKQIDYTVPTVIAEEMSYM

B1: TM-24: anti-TMEM106B monoclonal antibody; CDR-H1-3 SEQ ID NO: 12, 45, 88; CDR-L1-3 SEQ ID NO: 140, 170, 204 (antibody, V domains shown)
VH: QVQLKQSGPGQVQPSQSLSITCTVSGFSLSDYGVHWVRQSPGKGLEWLGVIWNNGNTDYNAAFISRLSINKDNSKSQVFFKMTSLQADDTAIYYCVRSLRPLHFDYWGQGTTVTVSS
VL: DIVMTQSPSSLTMSVGQKVTMNCKSSQSLLNSNNQQNYLAWYQQKPGQSPKLLVYFASIRESGVPDRFIGSGSGTDFTLTINSVQAEDLADYFCQQHYSTPFTFGSGTKLEIR
In the case of B1, the epitope bin is reported as “Bin 2” and the “Binding Community/Bin” value is reported as 2.

B2: TM-3: anti-TMEM106B monoclonal antibody; CDR-H1-3 SEQ ID NO: 4, 37, 80; CDR-L1-3 SEQ ID NO: 122, 162, 186 (antibody, V domains shown)
VH: QVTLKESGPGIVQPSQTLSLTCSFSGFSLNTLGRGVGWIRQPSGKGLEWLAKIWWNDDKFYYPALKSRLTISKDTSKNQIFLKIANVDTADSATYYCARIAGGTGAAYWGQGTTLTVSS
VL: DIVMTQAAFSNPVTLGTSASISCRSSKSLLHSNGITYLYWYLQKPGQSPQLLISQMSSLASGVPDRFSSGGSGTDFTLRISRVEAEDVGVFYCAQNLELPWTFGGGTKLELK
For B2, the epitope bin was “Bin 2” and the “Binding Community/Bin” value was 2.

B3: TM-26: anti-TMEM106B monoclonal antibody; CDR-H1-3 SEQ ID NO: 2, 56, 99; CDR-L1-3 SEQ ID NO: 139, 176, 203 (antibody, V domains shown)
VH: QVQLQQSGAELIRPGTSVKVSCKASGYAFTNYLIEWVKKRPGQGLEWIGVINPGSGITNYNEKFKGKATLTADKSSSTAYMQLSSLTSEDSAVYFCARSDFITTVVADYWGQGTTVTVSS
VL: DIVVTQTPLSLPVSFGDQVSISCRSSQSLTNYYGNTYLSWYLHKPGQSPQLLIYGISNRFSGVPDRFSGSGSGTDFTLKISTIKPEDLGMYYCLQGTHQPRTFGGGTKLEIK
In the case of B3, the epitope bin is reported as “Bin 1” and the “Binding Community/Bin” value is reported as 1.

B4: TM-82: anti-TMEM106B monoclonal antibody; VH SEQ ID NO: 487, VL SEQ ID NO: 522 (antibody, V domains shown)
VH: QVQLQQSGAELVRPGTSVRVSCKASGYAFTNYLIEWIKQRPGQGLEWIGVINPGSGITDYSEKFKGKARLTADKSSSTAYMQLSSLTSDDSAVYFCTRSPFITTVVADYWGQGTTVTVSS
VL: DVVVTQTPLSLPVSFGDQVSISCRSSQSLANTYGNTYLSWYLHTPGQSPQLLIFGISNRFSGVPDRFSGSGSGTDFTLKISTIKPEDLGVYYCLQGTHPPRTFGGGTKLEMK
modifications: Variable Heavy Chain -- TM-82; Variable Light Chain -- TM-82
In the case of B4, the epitope bin is reported as “Bin 1” and the “Binding Community/Bin” value is reported as 1.

B5: TM-25: anti-TMEM106B monoclonal antibody; CDR-H1-3 SEQ ID NO: 10, 57, 100; CDR-L1-3 SEQ ID NO: 137, 168, 205 (antibody, V domains shown)
VH: EVQLVESGGDLVKPGGSLRLSCAASGFTFSGYGMSWIRQTPDKRLEWVATISSGGRYTVYPDSVKGRFTMSRDNVKNTLYLQMSSLKSEDTALYYCARDNFYSYAMDYWGLGTSVTVSA
VL: DIVMTQAAFSNPVTLGTSASISCRSSKSLLHSNGITYLFWYLQKPGQSPQLLIYQMSNLASGVPDRFSSSGSGTDFTLRISRVEAEDVGVYYCAQNLELWTFGGGTKLEIK
With B5 the epitope bin was “Bin 2” and the “Binding Community/Bin” value was 2.

B6: TM-17: anti-TMEM106B monoclonal antibody; CDR-H1-3 SEQ ID NO: 17, 51, 94; CDR-L1-3 SEQ ID NO: 132, 172, 196 (antibody, V domains shown)
VH: QVQLQQSGAELIRPGTSVKVSCKASGYAFTDYLIEWVKQRPGQGLEWIGVINPGSGGTNYNEKFKGKAKLTADKSSSTAYMQLSSLTSEDSAVYFCVRSSYGVYVAYPMDYWGQGTSVTVSS
VL: DIQMTQSPSSLSASLGERVSLTCRASQDIGSNLNWLQQEPDGTIKRLIYATSSLDSGVPKRFSGSRSGSDYSLTISSLESEDFVDYYCLQYASSPRTFGGGTKLEIK
With B6 the epitope bin was “Bin 1” and the “Binding Community/Bin” value was 1.

B7: TM-1: anti-TMEM106B monoclonal antibody; CDR-H1-3 SEQ ID NO: 2, 35, 78; CDR-L1-3 SEQ ID NO: 120, 160, 184 (antibody, V domains shown)
VH: QVQLQQSGAELVRPGTSVKVSCKASGYAFTNYLIEWVKQRPGQGLEWIGVINPGSGGTKYNEKLKGKATLTADKSSSTAYMQLSSLTSVDSAVYFCARRGYTIYDFYAMDYWGQGTSVTVSS
VL: DVLMTQTPLSLPVSLGDHASISCRSSQSIVYNNGNTYLEWYLQKPGQSPKLLIYKVSNRFSGVPDRFSGSGSGTDFTLKISRVEAEDLGVYYCFQVSHVPFTFGSGTKLEIK
B7 was tested, and the epitope bin was “Bin 1” and the “Binding Community/Bin” value was 1.

B8: TM-35: anti-TMEM106B monoclonal antibody; CDR-H1-3 SEQ ID NO: 24, 66, 109; CDR-L1-3 SEQ ID NO: 148, 160, 194 (antibody, V domains shown)
VH: QVQLQQSGPELVRPGTSVKISCKAPGYTFTRHWMQWVRQRPGQGLEWIGEILPGSNNIYYNEKVKGKATLTVDTSSSTSYMQLSSLTSEDSAVYFCARSLYDYDGVFAYWGQGTLVTVSA
VL: DVLMTQIPLSLPVSLGDQASISCRSSQSIVHRNGNTYLEWYLQKPGQSPKLLIYKVSNRFSGVPDRFSGSGSGTDFTLKISRVEAEDLGVYYCFQGSHVPYTFGGGTKLEIK
In the case of B8, the epitope bin is reported as “Bin 2” and the “Binding Community/Bin” value is reported as 2.

B9: TM-54: anti-TMEM106B monoclonal antibody; VH SEQ ID NO: 464, VL SEQ ID NO: 500 (antibody, V domains shown)
VH: QVQMQQSGPVLVKPGASVTLSCKASGYTFTTYDLNWVKQRPGQGLEWIGWIYPRGGSTEYNEKFKGKATLTVDTSSSTAYMELHSLTSEDSAVYFCAKYSIYAMDYWGQGTSVTVSS
VL: DVLMTQTPLSLPVSLGDQASISCRSSQSIVHGNGNTYLEWYLQKPGQSPKLLIYKVSNRFSGVPDRFSGSGSGTDFTLKISRVEAEDLGVYYCFQGSHVPWTFGGGTKLEMK
modifications: Variable Heavy Chain -- TM-54; Variable Light Chain -- TM-54
B9 was tested, and the epitope bin was “Bin 2” and the “Binding Community/Bin” value was 2.

B10: TM-32: anti-TMEM106B monoclonal antibody; CDR-H1-3 SEQ ID NO: 13, 63, 106; CDR-L1-3 SEQ ID NO: 145, 160, 200 (antibody, V domains shown)
VH: EVQLQQSGAELVRPGASVRLSCIASGFNIKDYYMYWVKQRPEQGLEWIGRIDPEDGDTEYVPKFQGKATMTADTSSNTAYLQLSSLTSEDIGVYYCTTRTWDLYYAVDNWGQGTSVTVSS
VL: DVLMTQTPLSLPVSLGDQASISCRSSQNIVHSNGNTYLEWYLQKPGQSPKLLIDKVSNRFSGVPDRFSGSGSGTDFTLKISRVEAEDLGIYYCFQGSHVPFTFGSGTKLEIK
B10 was tested, and the epitope bin was “Bin 2” and the “Binding Community/Bin” value was 2.

B11: TM-48: anti-TMEM106B monoclonal antibody; CDR-H1-3 SEQ ID NO: 32, 74, 116; CDR-L1-3 SEQ ID NO: 155, 160, 218 (antibody, V domains shown)
VH: QVQLQQSGPELVKPGASVKLSCKASGYTFTSYDINWVKQRPGQGLEWIGWIYPRDGNTQYIEKLKGKATLTVDTSSSTAYMELHSLTSEDSAVYFCARWIFYAMDYWGQGTSVTVSS
VL: DVLMTQTPLSLPVSLGNQASISCRSSQSIVHGNGNTYLEWYLQKPGQSPKLLIYKVSNRFSGVPDRFSGSGSGTDFTLKISRVEAEDLGVYYCFQGSHLPYTFGGGTKLEIK
For B11, the epitope bin was “Bin 2” and the “Binding Community/Bin” value was 2.

B12: TM-79: anti-TMEM106B monoclonal antibody; VH SEQ ID NO: 484, VL SEQ ID NO: 519 (antibody, V domains shown)
VH: EVQLQQSGPELVKPGASVKMSCKASGYTFTNYVMHWLKQKPGQGLEWIAHITPHNDGTKYNEKFKGKATLTSDRSSSTAYMELNSLTSEDSAIYYCARSGQFGRGDYFHYWGQGTTVTVSS
VL: DIVLTQSPASLAVSLGQRATISCRASKSVSTSGSIYIHWYQQKPGQPPKLLIYLTSNLESGVPARFSGSGSGTDFTLNIHPVEEEDAATYYCQHSGELPWTFGGGARLEIK
modifications: Variable Heavy Chain -- TM-79; Variable Light Chain -- TM-79
With B12 the epitope bin was “Bin 1” and the “Binding Community/Bin” value was 1.
